According to publication PMC5364462:

Molecular target: Myr-GCN4-GFP
Experiment: fluorescence correlation spectroscopy (FCS); GFP-tagged membrane control proteins in live cells, same instrument and illumination conditions; cell line not stated; median molecular brightness

median molecular brightness: 746 cpsm
Substance: Myr-GCN4-GFP
